What was measured:
[1] = molecular target: equine LH/CGR-N174Q (equine)
[2] = molecular target: equine LH/CGR-N195Q (equine)
[3] = molecular target: equine LH/CGR-N291Q (equine)
[4] = molecular target: equine LH/CGR-N299Q (equine)
[5] = molecular target: equine LH/CGR-N313Q (equine)
[6] = molecular target: equine LH/CGR-N50Q (equine)
[7] = molecular target: equine LH/CGR-N99Q (equine)
[8] = molecular target: equine lutropin hormone/choriogonadotropin receptor, wild type (equine LH/CGR-WT) (equine)
[9] = molecular target: equine LH/CGR-N174Q (equine); remark: listed apart in the source
[10] = molecular target: equine LH/CGR-N195Q (equine); remark: listed apart in the source
[11] = molecular target: equine LH/CGR-N291Q (equine); remark: listed apart in the source
[12] = molecular target: equine LH/CGR-N299Q (equine); remark: listed apart in the source
[13] = molecular target: equine LH/CGR-N313Q (equine); remark: listed apart in the source
[14] = molecular target: equine LH/CGR-N50Q (equine); remark: listed apart in the source
[15] = molecular target: equine LH/CGR-N99Q (equine); remark: listed apart in the source
[16] = molecular target: equine lutropin hormone/choriogonadotropin receptor, wild type (equine LH/CGR-WT) (equine); remark: listed apart in the source

In the case of “recombinant equine chorionic gonadotropin (rec-eCG) (from UniProt P08751 21-169; P01220 25-120) (ligand)”, the EC50 of the cAMP response (HTRF) of transfected CHO-K1 cells stimulated with rec-eCG for 30 min [1] is reported as 0.179 µg/mL, the EC50 of the cAMP response (HTRF) of transfected CHO-K1 cells stimulated with rec-eCG for 30 min [2] is reported as 0.136 µg/mL and the EC50 of the cAMP response (HTRF) of transfected CHO-K1 cells stimulated with rec-eCG for 30 min [3] is reported as 0.0184 µg/mL. For the same substance, the EC50 of the cAMP response (HTRF) of transfected CHO-K1 cells stimulated with rec-eCG for 30 min [4] was 0.0269 µg/mL, the EC50 of the cAMP response (HTRF) of transfected CHO-K1 cells stimulated with rec-eCG for 30 min [5] was 0.0347 µg/mL and the EC50 of the cAMP response (HTRF) of transfected CHO-K1 cells stimulated with rec-eCG for 30 min [6] was 0.0177 µg/mL. The EC50 of the cAMP response (HTRF) of transfected CHO-K1 cells stimulated with rec-eCG for 30 min [7] was 0.0241 µg/mL, the EC50 of the cAMP response (HTRF) of transfected CHO-K1 cells stimulated with rec-eCG for 30 min [8] was 0.0237 µg/mL and the t1/2 of the loss of cell surface receptor (anti-VSVG ELISA on cells) after rec-eCG treatment, 0-120 min [9] was 3.3 min. The t1/2 of the loss of cell surface receptor (anti-VSVG ELISA on cells) after rec-eCG treatment, 0-120 min [10] was 31.4 min, the t1/2 of the loss of cell surface receptor (anti-VSVG ELISA on cells) after rec-eCG treatment, 0-120 min [11] was 14.3 min and the t1/2 of the loss of cell surface receptor (anti-VSVG ELISA on cells) after rec-eCG treatment, 0-120 min [12] was 12.8 min. For the same substance, the t1/2 of the loss of cell surface receptor (anti-VSVG ELISA on cells) after rec-eCG treatment, 0-120 min [13] was 13.3 min, the t1/2 of the loss of cell surface receptor (anti-VSVG ELISA on cells) after rec-eCG treatment, 0-120 min [14] was 5.6 min and the t1/2 of the loss of cell surface receptor (anti-VSVG ELISA on cells) after rec-eCG treatment, 0-120 min [15] was 5.2 min. The t1/2 of the loss of cell surface receptor (anti-VSVG ELISA on cells) after rec-eCG treatment, 0-120 min [16] was 5.6 min.

— publication PMC12384393
